Where a SMILES comes first, the peptide text is derived from it. The star is where a group is joined. Cbz = O=C(OCc1ccccc1)*; CHN2 = [N-]=[N+]=C*; tBu = CC(C)(C)*
Columns and labels:
SCP2 cells = test: SCP2 bone metastasis in mice (intracardiac injection); assay type: in vivo, mouse
Procedure: For bone metastasis study was performed as previously described. Briefly, athymic Balb/c mice were anesthetized and 10^5 cells in 100 μL phosphate-buffered saline (PBS) were injected into the left cardiac ventricle. Peptides were administrated intravenously into the mice (n = 10 per group) at a dose of 1 mg/kg/day. The control mouse group were administered with same volume of peptide solvents. The metastatic burden was measured by bioluminescent imaging (BLI) with a NightOWL II LB983 Imaging System (Berthold). The osteolytic area was analyzed by the SkyScan 1076 In vivo X-ray Microtomograph (Bruker). The sections of hind legs of the mice was used for H&E, TRAP and immunohistochemistry staining.

[1] = test system: murine primary bone marrow cells; test: Osteoclastogenesis of primary bone marrow cells (TRAP staining); assay type: cell-based, mouse; details: n = 3 independent experiments; for osteoclast differentiation of primary bone marrow cells: 10 μM inhibitor, Fig. 2F
Procedure: (§1) Primary bone marrow cells were harvested by flushing the cavity of tibia and femur from 5-6 week old Balb/c mice. Erythrocytes were removed by treating cell suspension with the Red Blood Cell Lysing Buffer (R7757, Sigma) for 5 min. The remaining cells were cultured in α-MEM (A1049001, Gibco) supplemented with 10% FBS and 5 ng/ml M-CSF for 12 h. Non-adherent cells were transferred into a 24-well plate and cultured in α-MEM supplemented with 10% FBS, 25 ng/ml M-CSF and 25 ng/ml RANKL for another 5 to 6 days. Cancer cell CM was mixed with α-MEM at a ratio of 1:3. CST6 protein, peptides or other drugs at indicated concentrations were administrated into the culture medium. For assessment of osteoclast differentiation, cells were stained using the Acid Phosphatase TRAP staining kit (387A, Sigma) as previously described. For RAW264.7 osteoclastogenesis assay, 700 cells per well were added into a 96-well plate and cultured in the same medium as shown above except that M-CSF was not essential. 7 ug/ml CST6 antibody (MAB1286, R&D) was used to neutralize recombinant human CST6 in RAW264.7 osteoclastogenesis assay.

RAW264.7 cells [2] = test: RAW264.7 osteoclastogenesis assay; assay type: cell-based, mouse
Procedure: as §1

SPHK1 = test: Intracellular SPHK1 protein level in RAW264.7 (Western blot); assay type: cell-based, mouse; details: Fig. 3B
Source text: SPHK1 is cleaved by CTSB [20], and more importantly, SPHK1 can negatively regulate osteoclast differentiation by phosphorylating sphingosine into sphingosine-1-phosphate (S1P). Concordantly, we observed that Ctsb knockdown increased SPHK1 expression in primary bone marrow cells (Fig. 3A). […] Similarly, Sphk1 knockdown could also recover osteoclastogenesis of RAW264.7 that was suppressed by the treatment of CST6 recombinant (Fig. 3G, H).

Chronic toxicity assay = assay type: in vivo, mouse; details: 10 mg/kg CA-074 for 8 consecutive days, nude mice, n = 9 per group; Fig. S6B
Procedure: […] The body weights of the mice were measured. […] Mice were sacrificed and organs were harvested for weight measurements and H&E staining to observe the pathological changes.

RAW264.7 cells [3] = test: Internalization of His-tagged CST6 protein by RAW264.7 (Western blot); assay type: cell-based, mouse; details: RAW264.7 cultured with CST6-His and various concentrations of Dynasore; Fig. 2K
Procedure: Cathepsins are lysosomal proteases and function only intracellularly in acidic environment. To verify that extracellularly derived CST6 could inhibit the intracellular CTSB activity of osteoclasts, RAW264.7 cells were cultured in the medium containing recombinant CST6 protein and the cell lysates were collected for CTSB activity analysis after phosphate-buffered saline (PBS) washing of the cells. […] Since osteoclasts are active in endocytosis, it is likely that exogenous CST6 is transported into osteoclasts via endocytosis. Indeed, we observed a co-localization of CST6 that entered the cells with the lysosome marker LAMP1 (Fig. S3B). […] Endocytosis inhibition also rescued the CST6-suppressed osteoclastogenesis of RAW264.7 cells (Fig. 2L).

p38 = test: Phosphorylation of p38 in RAW264.7 (Western blot); assay type: cell-based, mouse
Procedure: To further validate the involvement of p38 signaling in CST6-suppresesed osteoclastogenesis, the p38 inhibitor SB203580 was used to treat RAW264.7 cells that were cultured in cancer cell CM.

CTSB = molecular target: T1, CTSB (Mus musculus, UniProt P10605); test: Intracellular CTSB activity of RAW264.7 after treatment; assay type: cell-based; details: 32 nM CST6 protein in medium, lysates after PBS washing; Fig. 2I
T1 construct: endogenous in cells; host or cells: RAW264.7
T1 sequence (P10605 80-339): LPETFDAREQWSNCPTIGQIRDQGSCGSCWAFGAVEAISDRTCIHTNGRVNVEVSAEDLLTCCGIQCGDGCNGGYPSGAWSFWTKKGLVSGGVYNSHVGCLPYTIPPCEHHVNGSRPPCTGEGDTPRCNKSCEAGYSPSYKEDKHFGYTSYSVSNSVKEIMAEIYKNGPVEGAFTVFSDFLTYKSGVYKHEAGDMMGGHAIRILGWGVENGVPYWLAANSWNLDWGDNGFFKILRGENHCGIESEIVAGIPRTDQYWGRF
Procedure: Cathepsins are lysosomal proteases and function only intracellularly in acidic environment. To verify that extracellularly derived CST6 could inhibit the intracellular CTSB activity of osteoclasts, RAW264.7 cells were cultured in the medium containing recombinant CST6 protein and the cell lysates were collected for CTSB activity analysis after phosphate-buffered saline (PBS) washing of the cells. […] Since osteoclasts are active in endocytosis, it is likely that exogenous CST6 is transported into osteoclasts via endocytosis. Indeed, we observed a co-localization of CST6 that entered the cells with the lysosome marker LAMP1 (Fig. S3B). […]
Enzymatic activities of cathepsins were analyzed with the fluorometric kits of CTSB (K147, Biovision) and CTSL (K161, Biovision) according to the manufacturer's protocol. The LGMN activity was analyzed as previously described with minor modifications of the protocol. […] After three freeze-thaw cycles at -80 °C, the cell lysate was centrifuged at 10000 g for 15 min and the supernatant was transferred into a new tube followed by protein quantification. […] After adding 1 μL substrate Z-Ala-Ala-Asn-AMC (I1865, Bachem) into each well with a final concentration of 10 μM, fluorescence measurements were performed every 5 min at 37 °C using a BioTek's Synergy™ Mx Microplate Reader with a 360 nm excitation filter and a 460 nm emission filter. […]

[4] = test system: RAW264.7 or primary bone marrow-derived osteoclasts; test: Viability of osteoclasts after CST6 recombinant protein treatment; assay type: cell-based, mouse; details: n = 4 independent experiments; Fig. S1E
SCP2/SCP4 tumor cells = test: Tumor cell growth after CST6 recombinant protein treatment; assay type: cell-based; details: 32 nM, n = 4 biological repeats, Fig. S1F
[5] = Pharmacokinetic assay, circulation half-life; assay type: in vivo, mouse; details: Balb/c mice, 1 mg/kg intravenous, serum 0.25-4 h, ELISA (CST6 or His-tag), one-phase decay model; n = 4
Procedure: For pharmacokinetic assays, CST6 protein or His-tagged peptides were administrated intravenously into Balb/c mice (n = 4 per group) at a dose of 1 mg/kg. Blood samples (100 μL) were collected using capillary at 0.25 h, 0.5 h, 1 h, 2 h, 3 h and 4 h, respectively. After 1 h at room temperature, the serum samples were obtained from the supernatant by centrifugation at 3000 rpm for 15 min. The CST6 content in serum was analyzed with CST6 ELISA kit (Sino Biological, 10438). The peptide content was analyzed with the His-tag ELISA kit (GenScript, L00436) according to the manufacturer's instruction. Blank serum samples from mice without protein/peptide administration were used as control. Standard curves for each protein or peptide were generated with standard samples of known concentrations to calculate the protein/peptide concentration in blood samples. The data for all peptides were fitted with the one-phase decay model using Prizm software (GraphPad Software) to calculate the half-lives.

Acute toxicity assay = assay type: in vivo, mouse; details: Balb/c mice, intravenous, death counted after 24 h, n = 5 per group
Procedure: For acute toxicity assays, Balb/c mice (n = 5 per group) were intravenously injected with the indicated protein or peptides at doses of 150, 200, 250, 300, 350 mg/kg. The death of mice was counted after 24 h. The median lethal dose (LD50) was calculated using the Bliss method.

[6] = Tissue distribution by CST6 immunohistochemistry; assay type: in vivo, mouse; details: week 5 of 1 mg/kg/day, Fig. S6A
Procedure: We then performed pharmacological evaluation of CST6 protein and peptides.
Supplementary Figure 6. Pharmacological evaluation of CST6 recombinant protein and CA-074.
(A) CST6 immunohistochemistry in various organs at week 5 after administration of 1 mg/kg/day CST6 peptides. The lung section from un-treated mice was used as negative control of the assay. Dotted lines denotes areas of bone metastasis. Scale bar, 150 μm. (B) The body weights of nude mice after treatment of 10 mg/kg CA-074 for 8 consecutive days (n = 9 mice per groups).
(1 picture or pasted object on this page, not shown here)

[7] = nude mice with SCP2, 1 mg/kg/day intravenous, n = 10 mice per group

Molecule: CC(C)C[C@H](NC(=O)[C@H](Cc1ccccc1)NC(=O)c1cnccn1)B(O)O [Bortezomib, reference compound]
- body weight of metastasis-bearing mice (SCP2 cells; nude mice with SCP2, 1 mg/kg/day, Fig. 5F, Fig. S5B (week 5)): but not Bortezomib, recovered the body weight of mice

Molecule: CCCNC(=O)[C@H]1O[C@@H]1C(=O)N[C@H](C(=O)N1CCC[C@H]1C(=O)OC)[C@@H](C)CC [CA-074Me]
- osteoclast differentiation of primary bone marrow cells [1]: able to inhibit osteoclast differentiation
- osteoclast differentiation of RAW264.7 cells (RAW264.7 cells [2]; treatment with Z-FY or CA074Me, n = 3 independent experiments, Fig. 2G): able to inhibit osteoclast differentiation
- intracellular SPHK1 protein (SPHK1): stabilized the intracellular SPHK1 protein in a dose-dependent manner

Molecule: CCCNC(=O)[C@H]1O[C@@H]1C(=O)N[C@H](C(=O)N1CCC[C@H]1C(=O)O)[C@@H](C)CC [CA-074]
- body weight of mice (Chronic toxicity assay): caused apparent body weight loss of the mice

Molecule: O=C(N/N=C/c1ccc(O)c(O)c1)c1cc2ccccc2cc1O [Dynasore]
- effect on intracellular accumulation of CST6 (RAW264.7 cells [3]): reduced the intracellular accumulation of CST6 in a dosage-dependent manner

Molecule: C[S+]([O-])c1ccc(-c2nc(-c3ccncc3)c(-c3ccc(F)cc3)[nH]2)cc1 (stereo not drawn) [SB203580, reference compound]
- CM-induced osteoclast maturation of RAW264.7 (RAW264.7 cells [2]; RAW264.7 with RANKL and CM from CST6-knockdown or control SCP4, opposite to enhancement, Fig. 3L): showed the opposite effect
- CM-induced p38 phosphorylation (p38; RAW264.7 with RANKL and CM from CST6-knockdown or control SCP4, opposite to enhancement, Fig. 3K): showed the opposite effect

Molecule: CC(C)(C)Oc1ccc(C[C@H](NC(=O)[C@H](Cc2ccccc2)NC(=O)OCc2ccccc2)C(=O)C=[N+]=[N-])cc1 [Z-FY(t-Bu)-DMK] (Cbz-Phe-Tyr(tBu)-CHN2)
- osteoclast differentiation of primary bone marrow cells [1]: but not the CTSL inhibitor Z-FY(t-Bu)-DMK, was able to inhibit osteoclast differentiation

B1: CST6: human CST6 recombinant protein expressed in E. coli, type 2 cystatin, inhibitor of cysteine proteases (protein, UniProt Q15828 29-149, looked up)
Cystatin-M: RPQERMVGELRDLSPDDPQVQKAAQAAVASYNMGSNSIYYFRDTHIIKAQSQLVAGIKYFLTMEMGSTDCRKTRVTGDHVDLTTCPLAAGAQQEKLRCDFEVLVVPWQNSSQLLKHNCVQM
modifications: His tag
- osteoclastogenesis of primary bone marrow cells ([1]; RANKL-containing medium, 5 to 6 days, TRAP staining, indicated concentrations): significantly suppressed RANKL-induced differentiation of bone marrow cells into osteoclasts in a dosage-dependent manner
- expression of marker genes of osteoclastic differentiation (Caclr, Nfatc1, Acp5, Ctsk, Fos) (RAW264.7 cells [2]; RAW264.7, n = 3 biological repeats, Fig. 1J): downregulated
- osteoclastic differentiation of RAW264.7 cells (RAW264.7 cells [2]; cultured with RANKL, 32 nM human CST6 protein, Fig. 1I): inhibition of osteoclastic differentiation of cells
- intracellular CTSB activity of RAW264.7 (CTSB): inhibited the intracellular CTSB activity of RAW264.7
- viability of osteoclasts [4]: did not affect the viability of osteoclasts
- growth of tumor cells (SCP2/SCP4 tumor cells): did not directly affect the growth of tumor cells
- intracellular SPHK1 protein (SPHK1): stabilized the intracellular SPHK1 protein in a dose-dependent manner
- p38 activation (p38; RAW264.7, Fig. 3B): inhibited p38 activation
- bone metastasis (BLI) (SCP2 cells; nude mice pre-inoculated with SCP2, 1 mg/kg/day intravenous, n = 10 mice per group): efficiently alleviated bone metastasis
- osteoclastogenesis and bone destruction in metastases (TRAP+ cells, micro-CT) (SCP2 cells; [7]): reduced osteoclastogenesis and bone destruction
- survival of the mice (SCP2 cells; [7]): extended survival of the mice
- Half-life [5]: 10.48 min
- LD50 (Acute toxicity assay; 150-350 mg/kg, Bliss method): 322.00 ± 117.10 mg/kg
- MTD (Acute toxicity assay): 200 mg/kg
- tissue distribution of administrated protein [6]: mainly distributed in liver, kidney, intestine, spleen and bone metastasis foci

Source: article PMC8581426, “CST6 protein and peptides inhibit breast cancer bone metastasis by suppressing CTSB activity and osteoclastogenesis” (Theranostics, 2021)
